# Source: the nanobody polyreactivity screen of Harvey et al. (2022)
# Experiment: yeast display, Sf9 membrane polyspecificity reagent, FACS + sequencing; frameworks hold sequencing errors
# Summary of the method: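 After 36–48 hours of galactose induction, yeast (Saccharomyces cerevisiae BJ5465) displaying a synthetic nanobody library were stained at 4 °C for 1 hour with 10% biotinylated, detergent-solubilized Sf9 membrane reagent. Streptavidin microbeads enriched the stained cells before FACS sorting into low and high (top ~1%) gates on anti-HA and streptavidin fluorescence. Each clone's polyreactivity label reflects its gate of origin.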
row,Sequence,polyreactivity (PSR sort gate)
1,QVQLVESGGGLVQAGGSLRLSCAASGSTFLLNAMGWYRQAPGKERELVAAITWNGGSTYYADSVKGRFTISRDNAKNTVYLQMNSLKPEDTAVYYCAADWSWQWRYGYDYWGQGTQVTVSS,low polyreactivity
2,QVQLVDSGGGLVQAGGSLRLTFAASGRTFRWNVMGWYRQAPGKERELVATISRRSGSTNYADSVKGRFTISRDNAKITVYLQMNSLKPEDTAVYYCAVVIVRALVYAGDYWGQGTQVTVSS,low polyreactivity
3,QVQLVESGGGLVQAGGSLRLSCAASGSTFGTYAMGWYRQAPGKERELVAAITSGDNTYYADSVKGRFTISRDNAKNTVYLPMNSLKPEDTAVYYCAKDYNRYYWPWVIRGYDYWGQGTHVTVSS,low polyreactivity
4,QVQLVESWGGLVQAGGSLRLSCAASGITFLRNTMGWYRQAPGKERELVAAISRGGSTYYADSVKGRFTISRDNAKNTVFLQMKSLKPEDTAVYYCNAPSYVQATDYDYWGQGTQVTVSS,high polyreactivity
5,QVQHVESGGGLVQAGGSLRLSCAASGSIFGVNVMGWYRQAPGKERELVAAISSGGGSTYYAESVKGRFTISRDNAKNTVYLQMNSLKPEDTAVYYCAARGQKYGSTYRMDYWGQGTQVTVSS,low polyreactivity
6,QVQVVESGGGLVQAGGSLRLSCAASGRIFYTNAMGWYRQAPGKERELVAVISWGGDTTYYADSVKGRFTISRDKAKNTVYLQMNSLKPEDTAVYYCNADWGPTYEIYDSWGQGTQVTVSS,low polyreactivity
7,QVQLVESGGGLVQAGGSLRLSCAASGSIFGLNAMGWSRPAPGKERELVAAISGGSTNYADSVKGRFTISRDNAKNTVYLQMNSLKPEDTAVYYCAARARRRYYYWGQGTQVTVSS,high polyreactivity
8,QVQLVESGGGLVQAGGSLRLSCAASGSTFRSYAMGWYRQAPGKERELVAVISSGDSTYYADSVKGRFTISRDNAKNTVYLQMNSLKPEDTAVYYSAADSYVLGRWYGYWGQGTQVTVSS,low polyreactivity
9,QVQLVESGGCLVQAGGSLRLSCAASGNTFWVNSMGWYRQAPGKERELVAGITSSGDSTSYADSVKGRFTISRDNAKNTVYLQMNSLKPEDTAVYYCAADVGGFWYTEYYWGQGTQVTVSS,high polyreactivity
10,QVQLVESGGGLVQAGGSLRLSCAASGFTFSSYAMGWYRQAPGKERELVAAITYRGGSTYYADSVKGRFTISRDNAKNTVYLQMNSLKPEDTAVYYCAARWGYRMYWGQGTQVTVSS,high polyreactivity
11,QVQLVESGGGLGQAGGSLRLTCAASGSTFWYYAMGWYRQAPGKERELVAAITSGDSTYYADSVKGRFTISRDNAKKTVYLQMNSLKPEDTAVYYCAADLPWEDGYYFYSGYTEYDYWGQGTQVTVSS,low polyreactivity
12,QVQLVESGGGLVQAGGSLRLSCAASGSTFWSNPMGWYRQAPGKERELVAAISISDGNTYYADSVKGRFTISRDNAKNTVYLQMNSLKPDDTAVYYCATVGSEDGDPGFDYWGQGTQVTVSS,low polyreactivity
13,QVQLVESGGGLVQAGGSLRLSCAASGGTFAFNAMGWYRQAPGKERELVATIRYSGGSTYADSVKGRFTISRDNAKNTVYLQMNSLKPEDTAVYYCAADVIYWFSGEYDYWGQGTQVTVSS,low polyreactivity
14,QVQLVESGGGLVQAGGSLRLSCAASGRIFGDNAMGWYRQAPGKERELVAAITNRGGTTYYADSVKGRFTISRDNAKNTVYLQMNSLRPEDTAVYYCNKTPDRHRRYFGYGYWGQGTQVTVSS,low polyreactivity
15,QVQLVESGGGLVQAGGSLRLTCAASGSIFTYYVMGWYRQAPGKERELVATITGSSGSTYYADSVKGRFTISRDNAKNTVFLQMNSLKPEDTAVYYCATYGTLVYYYYPDMEYWGQGTQVTVSS,low polyreactivity
16,QVQLVESGGGLVQAGGSLRLSCAASGSIFRPYAMGWYRQAPGKEREFVAAITYGGGNTYYADSVKGRFTISRDNAKNTFYLQMNILKPEDTAVYYCNKLSRGFSPKYDYWGQGTQVTVSS,high polyreactivity
17,QVQLVESGGGLVQAGGSLRLSCAASGSIFGANTMGWYRQAPGKERELVAGITSGARTYYADSVKGRFTISRDNAKNTVYLQMNSLKPEDTAVYYCAAQYAWRRYGYWGQGTQVTVSS,high polyreactivity
18,HVQLEETGRGLVQAGGSLRISCAASGRIFEYYAMGWYRQAPGKDRELVAAITSSTGSTSYADSVKGRFTISRDNEKNTVYLQMNSLKPEDTAVYYCAADVWFFSKLSRYDYWGQGTQVTVSS,low polyreactivity
19,KVQLVESGSGFVQAGGSLGLSCAASGSIFRGYAMGWYRQAPGKERELVAAISWSGGTTYYADSVKGRLTISRDNEKNTFYLQMNSLKPEDTAVYYCAADTTVTITSKYNYWVQGTQVTVSS,low polyreactivity
20,QVQLVESGGGLVQAGGSLRLSCAASGRIFNLYAMGWYRQAPGKERELVAAIRGRGTSTYYADSVKGRFTISRDNAKNTVYLQMNSLKPEDTAVYYCATTSRELGELRIFDYWGQGTQVTVSS,low polyreactivity

row,Sequence,polyreactivity (PSR sort gate)
1,QVQLLESGGGLVQAGGSLRLSCAASGSIFWYNAMGWYRQAPGKERELVATISSRGDGTYYADSVKGRFTISRDNAKNTVYLQMNSLKPEDTAVYYCNKYRQQGWEFDYWGQGTQVTVSS,high polyreactivity
2,QVQLVESGGGLVQAGGSLRLSCAASGIIFYWYAMGWYRQSPGKERELVATITSTGGSTNYADSVKGRFTISRDNAKNTVYLQMNSLKPEDTAVYYCNADRYGIYYYSRLPFDYWGQGTQVTVSS,low polyreactivity
3,QVQLVESGVGLVQAGGSLRLSCAASGRIFRRYTMGWYRQPPGKERELVAAISASGGNTYYADSVKGRFTISRDNAKNTVYLQMNSLKPEDTAVYYCARRWRPWTQDGDDYWGQGTQVTVSS,high polyreactivity
4,QVQLVESGGGLVQAGGSLLLSCAASGSTLGRYAMGWYRQAPGKERELVASITWSDDSTYYADSVKGRFTISRDNAKNTVYLQMNSLKPEDTAVYYCAAAGNLYTYRFYYWGQGTQVTVSS,low polyreactivity
5,QVQLVESGGGLVQAGGSLRLSCAASGRTFSGYAMGWYRQAPGKERELVATITWSSGSTYYADSVKGRFTISRDNAKNTVYLQMNSLKPEDTAVYYCNADQGSALRWSYDYWGQGTQVTVSS,low polyreactivity
6,QVQLVESGGGLVQAGGSLRLSCAASGSIFTRYAMGWYRQAPGKERELVAVISVSGGRTYYADSVKGRFTISRDNAKNTVYLQMNSLKPEDTAVYYCAVGVLYAGYFYRYRYYYWGQGTQVTVSS,high polyreactivity
7,QVQLVESGGGLVQAGGSLRLSCAASGSTFKTYAMGWYRQAPGKERELVAAITSSGGRTYYADSVKGRFTISRDNAKNTVYLQMNSLKPEDTAVYYCAAVRRSYNQLDYWGQGTQVTVSS,high polyreactivity
8,QVQLVESGGGLVQAGGSLRLSCAASGFTFYWYAMGWYRQAPGKERELVATINWRGDTYYADSVKGRFTISRDNAKNTVYLQMNSLKPEDTAVYYCAATKRLAPRPLRLGYGSYNFCGQGTQVTVSS,high polyreactivity
9,QVQLVESGGRLVQAGGSLRLSCAPSGRIFWAYAMGWYRPAPGKERELVAAITSGGSTYYADSVKGRFTISRDNAKNTVYLQMNSLKPEDTAVYYCAVGSKWVDDSPEDVYWGQGTQVTVSS,low polyreactivity
10,QVQLVESGGGLVQAGGILRLSCAASGSTFRIYAKGWYRPAPGKERELVAGIRSSGGSTYYADSVKGRFTISRDKAKNTDYLQLNSLKPEDTAVYYCAKRHPYSWGSYQRYNYWGQGTQVTVSS,low polyreactivity
11,QVQLVESGGGLVQAGGSIRLSCAASGSTFGGNAMGWYRQAPGKERELVAAITGTGGRTFYADSVKGRFTISRDNAKNTVYLQMNSLKPEDTAVYFCAADSYIYSVNYWGQGTQVTVSS,low polyreactivity
12,QVQLVESGGGLVQAGGSLRLSCAASGRTFNHYAMGWYSQAPGKVRELVAGITISGGSTYYADSVKGRFTISRDNAKNTVYLQMNSLKPEDTPVYYCKAVYEYYRQSKGNMDYWGQGTQGTVSS,low polyreactivity
13,QVQLVESGGALVQAGGSLRISCAASGLIIVRKAMGLYRQAPGKERELVAAIRWSGGSTYYADSVKGRFTISRDNGNNTVFLQMNRLKPEDTSVYYCAATGYGFDMDYWGQGTQVNVSS,low polyreactivity
14,QDQLVESGGGLRQAGGSLRLSCAASGPTFFVYAMGWYTQAPGKERELVAAISWNGGSTFYADSVKGRFTISRDNAKNTVYIQMNSLNPEDTAVYYCAAVESRGWGGYGYWGQGTQVTVSS,high polyreactivity
15,QVQLVESGGGLVQAGGSLRLSCAASGSIFNVYAMGWYRQAPGKERELVAAISDGDGSTFYADSVKGRFTISRDNAKTTVYLQMNSLKPEDTAVYYCAKDYRWDRKFDYWGQGTQVTVSS,low polyreactivity
16,QVQLEESGVGLLQAGGSLRLSCAASGFIFCSNDMGWYRQAPGKERELVAAITRGGNTNYADSVKGRFTISRDNAKNTVYLQLNSLKPEDTAVYYCATEGYGAVQPSYEGGYWGQGTQVTVSS,low polyreactivity
17,QVQLVESAGGLVQEGGSLRLSCAASGSTFGDNAMGWYSQAPGKERELVAAITSVGTTYYADSVKGRFTISRDNAKNTVYLQMNSLKPEDSAVYDCNADWSWYNYYDFDYWGQGTQVTVSS,low polyreactivity
18,QVQLVESGGGLVQAGGSLRLSCAASGSTFLYYAMGWSRQAPGKEMELVAAISGSGGSTYYADSVKGRFTISRDNAKNTVYLQMNSLKPEDTAVYYCNAVARRHGLGPYDYWGQGTQVTVSS,high polyreactivity
19,QGQLVESGEGLVQAGGSLRLRCAASGSIIRYYTMGGYRQAPGKERELVAAISWSGGSTYYADSVKGRFTISRDNANNTVYLQMNSLKPEETSVYYCNAVSFAYNPYSATYDYWGQGTQVTVSS,high polyreactivity
20,QVQLVESGGGLVQAGGSLRLSCAASGRTFRWNVMGWYRQAPGKERELVAAISSDGSTYYADSVKGRFTISGDNAKNTVYLQMNSLKPEDTAVYYCAAVVSYYFRYGGSAYKYGYWGQGTQVTVSS,high polyreactivity
